The subject of data set [1] is Dicer D1320A/D1709A (Homo sapiens). Kind of data set: EMSA. Particulars: 5'-phosphate, 3'-OH; 50 mM Tris pH 7.6, 50 mM NaCl, 10% glycerol, 0.05% NP-40, 2 mM DTT, (0.5 mM EDTA for WT), 2 pM RNA (10 pM in Fig. 4 legend), 30 min at 4 °C. (In EMSA bound probe runs differently from free probe, usually more slowly.)
For a further data set, the system named is Dicer WT (Homo sapiens). The experiment in a line: EMSA. Particulars: 5'-phosphate, 3'-OH; 50 mM Tris pH 7.6, 50 mM NaCl, 10% glycerol, 0.05% NP-40, 2 mM DTT, (0.5 mM EDTA for WT), 2 pM RNA (10 pM in Fig. 4 legend), 30 min at 4 °C.

What is called Kd is the equilibrium constant for the complex coming apart. Read a low Kd as a tighter complex. As to pre-let-7a-1, the results for the Kd (in data set [1]; in the data set on Dicer WT (Homo sapiens)) were 9 nM and 5 nM, respectively.

These data come from article PMC6282390.
